Results as given in patent US20260232827A1 (Zymeworks, published 2026).

T1: human NaPi2a (human, UniProt Q06495 1-639)
T1 construct: whole, on cells; also called Hu NaPi2a; SLC34A1
T1 sequence (looked up): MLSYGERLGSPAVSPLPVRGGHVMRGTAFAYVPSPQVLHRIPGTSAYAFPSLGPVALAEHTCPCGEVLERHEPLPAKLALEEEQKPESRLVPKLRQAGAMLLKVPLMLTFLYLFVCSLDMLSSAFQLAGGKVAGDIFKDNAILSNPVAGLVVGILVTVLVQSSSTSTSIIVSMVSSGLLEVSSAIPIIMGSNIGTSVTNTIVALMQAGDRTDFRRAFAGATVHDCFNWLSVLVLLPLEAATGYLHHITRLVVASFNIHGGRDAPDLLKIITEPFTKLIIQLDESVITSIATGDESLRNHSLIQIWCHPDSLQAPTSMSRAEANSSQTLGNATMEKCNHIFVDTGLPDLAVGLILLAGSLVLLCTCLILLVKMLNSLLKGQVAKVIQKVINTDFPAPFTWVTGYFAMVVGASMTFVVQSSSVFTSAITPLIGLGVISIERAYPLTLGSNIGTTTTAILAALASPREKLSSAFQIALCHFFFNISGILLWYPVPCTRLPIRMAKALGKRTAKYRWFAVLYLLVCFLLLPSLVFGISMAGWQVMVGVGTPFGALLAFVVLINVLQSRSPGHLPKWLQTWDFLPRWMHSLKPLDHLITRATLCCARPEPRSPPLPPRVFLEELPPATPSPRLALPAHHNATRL

T2: Full length human NaPi2b (sodium-dependent phosphate transporter 2B, SLC34A2) (human, UniProt O95436 1-690)
T2 construct: also called huNaPi2b; CL_#13432
T2 sequence: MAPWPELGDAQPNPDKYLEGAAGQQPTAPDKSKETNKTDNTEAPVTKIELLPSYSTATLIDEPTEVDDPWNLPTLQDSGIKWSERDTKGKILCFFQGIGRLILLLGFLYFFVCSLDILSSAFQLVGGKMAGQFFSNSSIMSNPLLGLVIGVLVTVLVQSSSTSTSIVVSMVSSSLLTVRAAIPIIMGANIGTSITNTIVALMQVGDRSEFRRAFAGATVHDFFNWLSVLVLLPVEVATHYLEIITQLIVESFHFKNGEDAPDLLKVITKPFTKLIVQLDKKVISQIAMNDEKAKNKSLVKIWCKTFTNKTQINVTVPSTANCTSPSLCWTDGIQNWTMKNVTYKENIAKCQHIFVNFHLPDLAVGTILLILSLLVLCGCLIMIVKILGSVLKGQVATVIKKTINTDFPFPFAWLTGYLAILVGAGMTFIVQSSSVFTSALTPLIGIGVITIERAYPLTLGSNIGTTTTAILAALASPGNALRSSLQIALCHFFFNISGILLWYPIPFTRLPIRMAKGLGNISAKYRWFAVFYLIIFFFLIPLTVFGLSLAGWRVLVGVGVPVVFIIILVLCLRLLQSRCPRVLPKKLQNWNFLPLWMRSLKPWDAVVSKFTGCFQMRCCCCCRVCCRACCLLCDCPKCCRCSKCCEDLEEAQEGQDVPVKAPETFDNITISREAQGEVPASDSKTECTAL

T3: Construct 7 (human NaPi2b del 317-326) (human, UniProt O95436 1-690)
T3 construct: also called CL_#29921
T3 sequence: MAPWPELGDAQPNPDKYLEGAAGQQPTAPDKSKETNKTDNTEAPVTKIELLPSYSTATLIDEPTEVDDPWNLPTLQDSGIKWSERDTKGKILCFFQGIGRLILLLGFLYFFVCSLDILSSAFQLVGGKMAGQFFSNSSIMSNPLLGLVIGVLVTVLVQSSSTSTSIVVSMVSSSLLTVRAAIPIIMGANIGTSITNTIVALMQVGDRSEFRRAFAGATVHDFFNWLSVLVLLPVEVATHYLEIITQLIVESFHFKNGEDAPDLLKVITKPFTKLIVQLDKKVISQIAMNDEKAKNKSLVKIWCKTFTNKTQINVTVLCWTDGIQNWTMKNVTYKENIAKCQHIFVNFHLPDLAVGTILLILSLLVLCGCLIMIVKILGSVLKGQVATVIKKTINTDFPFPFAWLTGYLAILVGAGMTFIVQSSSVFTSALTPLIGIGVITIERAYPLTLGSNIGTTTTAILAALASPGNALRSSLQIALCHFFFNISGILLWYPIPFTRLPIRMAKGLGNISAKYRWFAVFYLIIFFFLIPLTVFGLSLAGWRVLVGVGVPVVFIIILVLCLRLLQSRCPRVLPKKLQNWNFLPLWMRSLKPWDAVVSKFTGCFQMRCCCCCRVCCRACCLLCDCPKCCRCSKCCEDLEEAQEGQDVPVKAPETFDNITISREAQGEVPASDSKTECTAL

B1: v18993 (lifastuzumab), reference anti-NaPi2b antibody (antibody, human IgG1, kappa)
heavy 1: GEVQLVESGGGLVQPGGSLRLSCAASGFSFSDFAMSWVRQAPGKGLEWVATIGRVAFHTYYPDSMKGRFTISRDNSKNTLYLQMNSLRAEDTAVYYCARHRGFDVGHFDFWGQGTLVTVSSASTKGPSVFPLAPSSKSTSGGTAALGCLVKDYFPEPVTVSWNSGALTSGVHTFPAVLQSSGLYSLSSVVTVPSSSLGTQTYICNVNHKPSNTKVDKKVEPKSCDKTHTCPPCPAPELLGGPSVFLFPPKPKDTLMISRTPEVTCVVVDVSHEDPEVKFNWYVDGVEVHNAKTKPREEQYNSTYRVVSVLTVLHQDWLNGKEYKCKVSNKALPAPIEKTISKAKGQPREPQVYVYPPSRDELTKNQVSLTCLVKGFYPSDIAVEWESNGQPENNYKTTPPVLDSDGSFALVSKLTVDKSRWQQGNVFSCSVMHEALHNHYTQKSLSLSPG
heavy 2: not shown
light: GDIQMTQSPSSLSASVGDRVTITCRSSETLVHSSGNTYLEWYQQKPGKAPKLLIYRVSNRFSGVPSRFSGSGSGTDFTLTISSLQPEDFATYYCFQGSFNPLTFGQGTKVEIKRTVAAPSVFIFPPSDEQLKSGTASVVCLLNNFYPREAKVQWKVDNALQSGNSQESVTEQDSKDSTYSLSSTLTLSKADYEKHKVYACEVTHQGLSSPVTKSFNRGEC
B2: v22277 (palivizumab, anti-RSV negative control, heterodimeric Fc) (antibody, human IgG1, kappa)
heavy 1: GQVTLRESGPALVKPTQTLTLTCTFSGFSLSTSGMSVGWIRQPPGKALEWLADIWWDDKKDYNPSLKSRLTISKDTSKNQVVLKVTNMDPADTATYYCARSMITNWYFDVWGAGTTVTVSSASTKGPSVFPLAPSSKSTSGGTAALGCLVKDYFPEPVTVSWNSGALTSGVHTFPAVLQSSGLYSLSSVVTVPSSSLGTQTYICNVNHKPSNTKVDKKVEPKSCDKTHTCPPCPAPELLGGPSVFLFPPKPKDTLMISRTPEVTCVVVDVSHEDPEVKFNWYVDGVEVHNAKTKPREEQYNSTYRVVSVLTVLHQDWLNGKEYKCKVSNKALPAPIEKTISKAKGQPREPQVYVYPPSRDELTKNQVSLTCLVKGFYPSDIAVEWESNGQPENNYKTTPPVLDSDGSFALVSKLTVDKSRWQQGNVFSCSVMHEALHNHYTQKSLSLSPG
heavy 2: not shown
light: GDIQMTQSPSTLSASVGDRVTITCKSQLSVGYMHWYQQKPGKAPKLLIYDTSKLASGVPSRFSGSGSGTEFTLTISSLQPDDFATYYCFQGSGYPFTFGGGTKLEIKRTVAAPSVFIFPPSDEQLKSGTASVVCLLNNFYPREAKVQWKVDNALQSGNSQESVTEQDSKDSTYSLSSTLTLSKADYEKHKVYACEVTHQGLSSPVTKSFNRGEC
notes: also called neg control
B3: v38591 (humanized anti-NaPi2b antibody, wild-type Fc) (antibody, human IgG1, kappa)
heavy: not shown
light: DVQMTQSPSSLSASVGDRVTITCRASQDVYSYLNWYQQKPGKAVKLLIYYTSRLQSGVPSRFSGSGSGTDYTLTISSLQPEDFATYYCQQYNIFPWTFGQGTKLEIKRTVAAPSVFIFPPSDEQLKSGTASVVCLLNNFYPREAKVQWKVDNALQSGNSQESVTEQDSKDSTYSLSSTLTLSKADYEKHKVYACEVTHQGLSSPVTKSFNRGEC
notes: also called v38591 Wild-type; H1L2
B4: v38591 (humanized anti-NaPi2b antibody, H1L2, wild-type Fc, heavy chains with C-terminal lysine) (antibody, human IgG1, kappa)
heavy: not shown
light: B3 light
notes: Full-size human IgG1/kappa antibody; also called v38591 (wild-type Fc)
B5: v18992 (MX35), reference anti-NaPi2b antibody (antibody, human IgG1, kappa)
heavy 1: GQVQLVQSGAEVVKPGASVKMSCKASGYTFTGYNIHWVKQAPGQGLEWIGAIYPGNGDTSYKQKFRGRATLTADTSTSTVYMELSSLRSEDSAVYYCARGETARATFAYWGQGTLVTVSSASTKGPSVFPLAPSSKSTSGGTAALGCLVKDYFPEPVTVSWNSGALTSGVHTFPAVLQSSGLYSLSSVVTVPSSSLGTQTYICNVNHKPSNTKVDKKVEPKSCDKTHTCPPCPAPELLGGPSVFLFPPKPKDTLMISRTPEVTCVVVDVSHEDPEVKFNWYVDGVEVHNAKTKPREEQYNSTYRVVSVLTVLHQDWLNGKEYKCKVSNKALPAPIEKTISKAKGQPREPQVYVYPPSRDELTKNQVSLTCLVKGFYPSDIAVEWESNGQPENNYKTTPPVLDSDGSFALVSKLTVDKSRWQQGNVFSCSVMHEALHNHYTQKSLSLSPG
heavy 2: not shown
light: GDIQMTQSPSSLSASVGDRVTITCSASQDIGNFLNWYQQKPGKTVKVLIYYTSSLYSGVPSRFSGSGSGTDYTLTISSLQPEDFATYYCQQYSKLPLTFGQGTKLELKRTVAAPSVFIFPPSDEQLKSGTASVVCLLNNFYPREAKVQWKVDNALQSGNSQESVTEQDSKDSTYSLSSTLTLSKADYEKHKVYACEVTHQGLSSPVTKSFNRGEC
B6: MX35 (v18992), reference anti-NaPi2b antibody (antibody, human IgG1, kappa)
heavy 1: B5 heavy 1
heavy 2: not shown
light: B5 light

What was measured:
human NaPi2a = target: T1, human NaPi2a; assay: flow cytometry on HEK293-6e cells transfected with human NaPi2a, 24 h at 4 C, anti-human IgG Fc AF647
[1] = target: T2, Full length human NaPi2b …; assay: flow cytometry, transfected HEK293-6e cells, antibody 2 nM;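 also: transfected cells exposed to test antibody 24 h at 4 °C to block internalization, at least 1,000 events per well, background is mean MFI of unstained cells lacking primary antibody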
[2] = target: T3, Construct 7 (human NaPi2b del 317-326); assay: as above
[3] = target: T4, Construct 1 (chimeric human NaPi2b, swap in NaPi2c in 239-259) (human); assay: as above
T4 construct: also called CL_#29914

[4] = target: T5, Construct 2 (chimeric human NaPi2b, swap in NaPi2c in 280-301) (human); assay: as above
T5 construct: also called CL_#29915

[5] = target: T6, Construct 5 (chimeric human NaPi2b, swap in NaPi2a in 304-348) (human); assay: as above
T6 construct: also called CL_#13436

Binder	binding result (human NaPi2a)	Background-Subtracted AF647 Mean Fluorescence Intensity [1] [MFI]	Background-Subtracted AF647 Mean Fluorescence Intensity [2] [MFI]	Background-Subtracted AF647 Mean Fluorescence Intensity [3] [MFI]	Background-Subtracted AF647 Mean Fluorescence Intensity [4] [MFI]	Background-Subtracted AF647 Mean Fluorescence Intensity [5] [MFI]
B1	no binding (tested: 200 nM)	–	–	–	–	–
B2	no binding (tested: 200 nM)	–	–	–	–	–
B3	no binding (tested: 200 nM)	–	–	–	–	–
B4	–	948	677	1550	832	-12
B5	no binding (tested: 200 nM)	–	–	–	–	–
B6	–	870	76	1890	660	16
